# Laboratory results taken from patent publication US20090011979A1 (published 2009).
# T1: mouse IL-18 (mouse, UniProt P70380 36-192)
# T1 chain: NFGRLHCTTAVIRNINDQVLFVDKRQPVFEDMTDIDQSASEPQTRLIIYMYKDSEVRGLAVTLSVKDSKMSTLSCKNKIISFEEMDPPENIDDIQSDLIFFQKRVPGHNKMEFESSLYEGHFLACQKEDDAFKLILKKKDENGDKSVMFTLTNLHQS
# Columns and labels:
# [1] = molecular target: T1, mouse IL-18; assay: SPR
# [2] = molecular target: human IL-18 (human, UniProt Q14116 37-193); assay: SPR
# Sequence of human IL-18 (Q14116 37-193): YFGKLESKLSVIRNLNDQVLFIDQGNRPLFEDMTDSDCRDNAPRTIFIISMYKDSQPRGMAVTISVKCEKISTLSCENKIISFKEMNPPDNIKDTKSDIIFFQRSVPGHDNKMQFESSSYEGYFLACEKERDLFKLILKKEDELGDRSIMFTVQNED
binder,measurement,setting,value
"untagged YCI (YMTV IL-18 bp, YMTV Cytokine Inhibitor, without tag) (other) EKECDKHRSVNIQVPMKETSEVLLRCTGSSYFKHFSYVYWLVGESETVDQLQQNSGYGETSHPSKPHECGNLPSADLVLTNMTEKMRDTKLTCVLMDPDGHIDESLVLREVWDCFNKT",Kd,[1],7.6 nM
same,Kd,[2],8.13 nM
